Source: the supplement of paper PMC9170038

How the values were obtained:
MS2 coat protein [1] = assay: apparent KD of MS2 coat protein, switch ON state; designed switch direction (-1 OFF switch, 1 ON switch): -1; higher = weaker reporter binding; conditions: FMN input: 0 or 200 uM; Eterna round: R93 (includes R88 designs)
How it was run: (§1)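 Each design's apparent KD comes from the median of binding-curve fits to its normalised clusters. Those clusters carried RNA switches transcribed on-chip from Illumina sequencing clusters. SNAP-549-labelled MS2 coat protein was titrated onto them in twofold steps (0.7 or 1.5 nM to 3 µM; per step 0.8–1.5 h down to 10–20 min). Conditions were 100 mM Tris-HCl pH 7.5, 80 mM KCl, 4 mM MgCl2, without or with constant ligand.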

MS2 coat protein [2] = assay: apparent KD of MS2 coat protein, switch OFF state (with FMN for OFF switches, without FMN for ON switches); designed switch direction (-1 OFF switch, 1 ON switch): -1; higher = weaker reporter binding; conditions: FMN input: 0 or 200 uM; Eterna round: R93 (includes R88 designs)
How it was run: as §1

MS2 coat protein [3] = assay: apparent KD of MS2 coat protein; designed switch direction (-1 OFF switch, 1 ON switch): 1; higher = weaker reporter binding
How it was run: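 Three titration conditions were used: no input, 200 uM small-molecule ligand, and an oligonucleotide input. In each, SNAP-549-labelled MS2 coat protein was raised from 0.7 or 1.5 nM, doubling, to 3 µM over designed RNA switches transcribed on Illumina chips by stalled E. coli RNA polymerase. Curve fits of normalised cluster fluorescence gave values whose per-design median over clusters is the apparent KD.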

[4] = Eterna round: R95, input ligand: microRNA oligo, concentration not stated
[5] = input ligand: microRNA oligo, concentration not stated
[6] = Eterna round: R95, input ligand: FMN 200 uM
[7] = Eterna round: R95, input ligand: none

Sequence | apparent KD of MS2 coat protein (MS2 coat protein [1]) [nM] | apparent KD of MS2 coat protein (MS2 coat protein [2]) [nM] | also measured
AAAAAAAAAGGAUAUACAGGAGGUAAGGUCGAAAAAAAAAAACAUGAGGAUCACCCAUGUAGAAGGUUUAAAAA [Excls2-VIII] | 27 | 30.6 | 
AAAAAAAGAGGAUAUACGUACAUGUCGAAAGACGUGAAGGGACAUGAGGAUCACCCAUGUAGAAGGUUUAAAAA [Mat - Exclusion 2 - JL mod - D84] | 33.8 | 15.8 | 
AAAAAACAUGAGGAUCACCCAUGUAAGGAUAUGCAAGCAAGAAGAAAGAACAGAAAAAGCAGAAGGUACACACA [Amethyst 73] | 22.4 | 25 | 
AAAAAACAUGAGGAUCACCCAUGUAAGGAUAUGCGAAAAUAAAAUAAAAUAAAAUAAAGCAGAAGGUACAAAAA [66%, Wbt, 1] | 32.6 | 37.7 | 
AAAAAACAUGAGGAUCACCCAUGUAAGGAUAUGCUAAAAAACACGGAAAAACGUGAUAGCAGAAGGUACAAAAG [Mat - Exclusion 1 - Eli mod - D87] | 25.5 | 31.2 | 
AAAAAACAUGAGGAUCACCCAUGUAAGGAUAUGCUCGUGCGAAAAGCACAAAAAAAGAGCAGAAGGUACAAAAA [66%, Wbt, 39] | 15.2 | 33.3 | 
AAAAAACAUGAGGAUCACCCAUGUAAGGAUAUGUAAAAUAAAAGAAAAAUAAAGAAAAGCAGAAGGUAUAUGUA [JL wbt mod 17] | 29 | 24.7 | 
AAAAAACAUGAGGAUCACCCAUGUGAGGAUAUGACGUAAAUAAAGAAAGAAGAAAUCGUCAGAAGGCACACCUA [Disincluded 2 (MS2 Riboswitches)] | 25.7 | 45.7 | 
AAAAAACAUGAGGAUCACCCAUGUGAGGAUAUGCGAAAAAAAAAAUAAAAAAAAAAAAGUAGAAGGUACAAAAA [LROPPY Exclusion 1 - v08_deltaG=5.44] | 27.9 | 26.9 | 
AAAAAACAUGAGGAUCACCCAUGUUAGGAUAUGCUAUGGAAAAAUAAAAUAAAACAUAGCAGAAGGGACAAAAA [Mat - Exclusion 1 - Eli mod - D28] | 15 | 38.3 | 
AAAAAAGCAGGAUAUACGAACAUGUCAAAAGACGUGAAGGGACAUGAGGAUCACCCAUGUAGAAGGGUUAAAAA [JL Stem Breaker 5] | 198 | 53.6 | 
AAAAAGAGAGGAUAUACAUGAGGAUCACCCAUGUGACACAAAAAAAAAAAAAAAAAAUGUAGAAGGCUCAAAAA [65%, Moding Exclusion3-cac2, 18] | 35.5 | 97.2 | 
AAAAAGAUAGGAUAUACAUGAAAAAAAAAAAAAAAAAAAAGACAUGAGGAUCACCCAUGUAGAAGGGUCAAAAA [water's exclusion 2 2nd] | 50.3 | 42.1 | 
AAAAAGCGAGGAUAUACAUGAGGAUCACCCAUGUGAAAGUCGAAAAAAAAGACAAAAAGUAGAAGGCGCAAAAA [Banishment 7 - Jieux - Exclusion 3] | 18.3 | 22.8 | 
AAAAAGCGAGGAUAUACGAGUCAAAGAAAAGACAAGGAGAAACAUGAGGAUCACCCAUGUAGAAGGCGCAAAAA [Fiskers exclusion D2] | 21.8 | 25.3 | 
AAAAAGCUAGGAUAUACGAAAAAAAAGGGUAGAAAAAAAACACAUGAGGAUCACCCAUGUAGAAGGAGCAAAAA [Mat - Exclusion 2 - Tesla mod - D33] | 45.7 | 84.6 | 
AAAAAGGCAGGAUAUGCAUACCCACGGAAAAAAAGGCUGGGACAUGAGGAUCACCCAUGUAGAAGGGCCAAAAA [Dora Explored 12 - Jieux - Exclusion 2] | 21.5 | 14.5 | 
AAAAAGGCAGGAUAUGCAUACCCACGGAAAAAAAGGUUGGGACAUGAGGAUCACCCAUGUAGAAGGGCCAAAAA [Dora Explored 13 - Jieux - Exclusion 2] | 43.4 | 22.4 | 
AAAAAGGGAGGAUAUGCAUACACACAAAAAAAAAAAAAAAAACAUGAGGAUCACCCAUGUAGAAGGCCCAAAAA [Dora Explored 4 - Jieux - Exclusion 2] | 21.1 | 14.4 | 

Sequence | apparent KD of MS2 coat protein (MS2 coat protein [1]) [nM] | apparent KD of MS2 coat protein (MS2 coat protein [2]) [nM] | also measured
AAAAAGUCAGGAUAUACAUGAGGAUCACCCAUGUAGCAUACGAAAAAGAGUGUGCAGUGUAGAAGGGACAAAAA [Exclusion3-cac3] | 19.5 | 21.2 | 
AAAAAGUCAGGAUAUGCGAAGGCGUCUGAUAGACGAGGCUAGCAGAAGGGACAUGAGGAUCACCCAUGUAAAGA [Mat - Exclusion 4 - D82] | 50 | 51.3 | 
AAAAAGUCAGGAUAUGUAGCAAAAGGUGAUCAAAAAAAGCUACAGAAGGGACAUGAGGAUCACCCAUGUAAAAA [Ex4: 937] | 139 | 156 | 
AAAAAGUGAGGAUAUACAUGAGGAUCACCCAUGUGAAAUCGGAAAAAAAACGAAAAAAGUAGAAGGCACAAAAA [Fiskers Exclusion 3 D3] | 19.1 | 22.1 | 
AAAAAGUGAGGAUAUACAUGAGGAUCACCCAUGUGUUAAAAAAAAAGGGUGGAAGAAAGUAGAAGGCACCAAAA [Ex 3 May 50] | 33.7 | 22.9 | 
AAAAAGUGAGGAUAUACGUUGAAAAAAAAAAAAAAAAAGGCGUAGAAGGCACAUGAGGAUCACCCAUGUAAAAA [Ex4 Malc#5] | 56 | 77.4 | 
AAAAAGUGAGGAUAUCCAGAUAAAAAAACGAAAAAAAAUCUGGAGAAGGCACAUGAGGAUCACCCAUGUAUGAC [Ex 4 May 6] | 32.7 | 38.2 | 
AAAAAGUGAGGAUAUGGUAAAAAAAAAAAAAAAAAAAACCUCCAGAAGGCACAUGAGGAUCACCCAUGUAAAAA [Jolly's Folly 2 - Jieux - Exclusion 4] | 75.8 | 34.6 | 
UUUAAACAUGAGGAUCACCCAUGUUUUUUUAUGGGAGGAUAUCUAAGUUAAUUAUAUUAAGGAGAAGGCCUAUUUU [× ×•×ª×• ×ž×“×™× ×” × ×—×ª-04] (puzzle: Same State 1) |  |  | apparent KD of MS2 coat protein (MS2 coat protein [3]; [4]): 124 nM
UUUAGAUUCAGAGGAUAUUGAUGUUGUAAGUAACAAGAAGGCUGAAUGGUUAGAAUUGUUUAUUAACAUGAGGAUCACCCAUGU [JR_SSNG1_Sub009] (Eterna round: R96, puzzle: Same State NG 1) |  |  | apparent KD of MS2 coat protein (MS2 coat protein [3]; input ligand: FMN 200 uM): 17 nM; apparent KD of MS2 coat protein (MS2 coat protein [3]; [5]): 17.1 nM; apparent KD of MS2 coat protein (MS2 coat protein [3]; input ligand: none): 20.8 nM
UUUAGCGUUACAGGAUAUGGUGAGGAUCACCCACUAGAAGGGUAAACAUGUGCGUCGGACAUGAGGAUCACCCAUGUAGGGCGU (Eterna round: R96, puzzle: Same State NG 1) |  |  | apparent KD of MS2 coat protein (MS2 coat protein [3]; input ligand: FMN 200 uM): 16.5 nM; apparent KD of MS2 coat protein (MS2 coat protein [3]; [5]): 22.2 nM; apparent KD of MS2 coat protein (MS2 coat protein [3]; input ligand: none): 35.2 nM
UUUAGUUGCGGGCAGGAUAUGUAUUAAAAUACAUGAGGAUCACCCAUGUGCGGGUAUAACACCCGAUAGAAGGGCCAAUCGCGAC [Laonerce - 11] (puzzle: Same State 2) |  |  | apparent KD of MS2 coat protein (MS2 coat protein [3]; [6]): 20.9 nM; apparent KD of MS2 coat protein (MS2 coat protein [3]; [4]): 53.6 nM; apparent KD of MS2 coat protein (MS2 coat protein [3]; [7]): 71.9 nM
UUUCUCAUGUAAGGAUAUGCAGCCGUUUCGGCUGCAGAAGGUACUAUAAUACAUGAGGAUCACCCAUGUCUCUAUUAUUUAGUU [JL SSNG1 1.44] (Eterna round: R96, puzzle: Same State NG 1) |  |  | apparent KD of MS2 coat protein (MS2 coat protein [3]; input ligand: FMN 200 uM): 84.7 nM; apparent KD of MS2 coat protein (MS2 coat protein [3]; [5]): 39.9 nM; apparent KD of MS2 coat protein (MS2 coat protein [3]; input ligand: none): 47.1 nM
UUUCUCAUGUAAGGAUAUGCAGCCGUUUCGGCUGCAGAAGGUACUAUAAUACAUGAGGAUCACCCAUGUCUCUCGCAUUGCGAG [JL SSNG1 1.48] (Eterna round: R96, puzzle: Same State NG 1) |  |  | apparent KD of MS2 coat protein (MS2 coat protein [3]; input ligand: FMN 200 uM): 263 nM; apparent KD of MS2 coat protein (MS2 coat protein [3]; [5]): 28.9 nM; apparent KD of MS2 coat protein (MS2 coat protein [3]; input ligand: none): 62 nM
UUUGCAUGACGAGGAUAUCAUUUAUAUCUUGAUUGAGAAGGCGUUCUUUUUUUUACCUAACAUGAGGAUCACCCAUGUGACAGU [JR_SSNG1_Sub050] (Eterna round: R96, puzzle: Same State NG 1) |  |  | apparent KD of MS2 coat protein (MS2 coat protein [3]; input ligand: FMN 200 uM): 14.1 nM; apparent KD of MS2 coat protein (MS2 coat protein [3]; [5]): 13.4 nM; apparent KD of MS2 coat protein (MS2 coat protein [3]; input ligand: none): 16.1 nM
UUUGGGUGGCUGGAGGAUAUCCUGGUUGUUACAUGAGGAUCACCCAUGUGCCGCGCGGUGCGCUGGGAGAAGGCCGGCGGCCGUU (puzzle: Same State 2) |  |  | apparent KD of MS2 coat protein (MS2 coat protein [3]; [6]): 28.9 nM; apparent KD of MS2 coat protein (MS2 coat protein [3]; [4]): 61.1 nM; apparent KD of MS2 coat protein (MS2 coat protein [3]; [7]): 141 nM
UUUUAUUUUUGGGUGCAAGCUUUUUGCUUACAUGAGGAUCACCCAUGUUUUUAUUUUUUAUUUUUAUUUUUAUUUUU (puzzle: Sensor for hsa-mir-208a) |  |  | apparent KD of MS2 coat protein (MS2 coat protein [3]; [6]): 51.8 nM; apparent KD of MS2 coat protein (MS2 coat protein [3]; [4]): 60.3 nM; apparent KD of MS2 coat protein (MS2 coat protein [3]; [7]): 86.7 nM
UUUUUUAAGACGAGACAAGCUUUUUGAUCACAUGAGGAUCACCCAUGUCUCGUCUUAUUUUUUUUUUUUUUUUUUUU [BA Sensor hsa-mir-208a - 2 - 3] (puzzle: Sensor for hsa-mir-208a) |  |  | apparent KD of MS2 coat protein (MS2 coat protein [3]; [6]): 21.4 nM; apparent KD of MS2 coat protein (MS2 coat protein [3]; [4]): 5.76 nM; apparent KD of MS2 coat protein (MS2 coat protein [3]; [7]): 16.9 nM
